Test results from US7709240B2, “AMP deaminase originating streptomyces and utilization thereof” (Amano Enzyme Inc., priority 2004, dated 2010).

Legend:
[1] = Thermostability of crude enzyme solutions / culture supernatant: residual AMP deaminase activity after 30 minutes; format: physicochemical; conditions: enzyme solution or culture supernatant treated 30 minutes at 30-75° C., pH 5.6
Description: By using the decrease of OD265 at the time of reaction as an index, the enzyme activity was measured. To 1.5 ml of solution obtained by mixing 0.017M 5′ AMP-2Na and 1/15M phosphate buffer solution (pH 5.6) at the ratio of 1:2, 0.5 ml of sample solution was added so as to obtain a reaction solution, which was reacted at 37° C. for 15 minutes. Then, 2% perchloric acid solution was added so as to stop the reaction and 100 μl of the solution was taken out. Water was added to the solution so that the total amount was 5 ml. Then, OD265 was measured. The value similarly measured at reaction time of 0 minute was defined as a blank. Under the above-mentioned conditions, a case where an absorbance difference is reduced by 0.001 during 60 minutes was defined as one unit. […]
Then, in the genus Streptomyces in the stored strains of Amano Enzyme Inc., screening of AMP deaminase producing strain was carried out. […] Furthermore, the residual activity was measured when the activity obtained when treatment was not carried out was defined as 100%. […]
The thermostability of AMP deaminase produced by transformant (SAD-1) was measured. Culture supernatant of SAD-1 prepared by the above-mentioned method was treated at a predetermined temperature, and the residual AMP deaminase activity was measured (pH 5.6). […]

[2] = Feasibility test 2: nuclease and deaminase treatment of yeast lysate carried out simultaneously; conditions: simultaneously with nuclease, 70° C., pH5, 3 hours or 5 hours
Description: In test 2, treatment with nuclease and treatment with deaminase were carried out simultaneously. Specifically, the treatment was carried out by the following procedure and the IMP conversion rate was calculated. Firstly, nuclease “AMANO” G (Amano Enzyme Inc., 0.1% w/w yeast solid) and “Deamizyme (50,000 units) (trade name of Amano Enzyme Inc., 0.01 to 0.04% w/w yeast solid)” that is an AMP deaminase agent derived from the test enzyme (Aspergillus melleus) or a crude enzyme solution prepared by using Streptomyces murinus were added to yeast lysate (YL-15, 0.2%) and they were reacted with yeast lysate under the conditions at a temperature of 70° C. and pH5 for a predetermined time (3 hours or 5 hours). Then, the reacted product was heat treated, and then subjected to HPLC analysis. Note here that added amount of AMP deaminase derived from Streptomyces murinus was set so that the activity value thereof became the same as that of “Deamizyme (50,000 u/mg product)” (trade name, Amano Enzyme Inc.)

[3] = Thermostability of purified enzyme: residual activity after 30 minutes at each temperature; format: physicochemical
Description: By using the decrease of OD265 at the time of reaction as an index, the enzyme activity was measured. To 1.5 ml of solution obtained by mixing 0.017M 5′ AMP-2Na and 1/15M phosphate buffer solution (pH 5.6) at the ratio of 1:2, 0.5 ml of sample solution was added so as to obtain a reaction solution, which was reacted at 37° C. for 15 minutes. Then, 2% perchloric acid solution was added so as to stop the reaction and 100 μl of the solution was taken out. Water was added to the solution so that the total amount was 5 ml. Then, OD265 was measured. The value similarly measured at reaction time of 0 minute was defined as a blank. Under the above-mentioned conditions, a case where an absorbance difference is reduced by 0.001 during 60 minutes was defined as one unit.
Subsequently, the thermostability of the enzyme was examined by the following procedure. An enzyme solution (0.15 ml) containing 2.8 μg protein (total amount) was adjusted to pH 5.6 by using acetate buffer (pH 5.0), and then treated for 30 minutes at each temperature (40° C., 50° C., 60° C., 65° C., 70° C., and 75° C.). Then, the residual activity (percent with respect to the enzyme activity in the case where the treatment was not carried out) was measured. At 65° C. or less, about 90% or more of activity is maintained. Furthermore, also when the treatment is carried out at 70° C., about 55% of the activity is maintained.

Substrate specificity = format: biochemical; conditions: activity with respect to 5′ AMP = 100%
Excerpt: It is reported that adenosine deaminase derived from Streptomyces aureofaciens has a wide range of substrate property, for example, catalytic ability of AMP (non-patent document 2). Taken this into consideration, in order to confirm whether deaminase derived from Streptomyces murinus obtained in the above-mentioned method is AMP-deaminase or adenosine-deaminase, the substrate specificity was investigated. Note here that the relative activity, when the enzyme activity with respect to 5′ AMP is defined as 100% is represented. […] In particular, the enzyme acted on 5′dAMP, ADP and ATP favorably. From the above-mentioned results, it was confirmed that the deaminase derived from Streptomyces murinus obtained by the above-mentioned method was AMP deaminase. Furthermore, it was determined that the enzyme was able to be employed preferably in a reaction using 5′dAMP, ADP and ATP as a substrate.
In order to determine whether the deaminase derived from transformant (SAD-1) obtained as mentioned above was AMP deaminase or Adenosine-deaminase, the substrate specificity was investigated. Note here that relative activities when the enzyme activity with respect to 5′ AMP was defined as 100% are represented. […] In particular, the enzyme acted on 5′-dAMP, ADP and ATP favorably. From the above-mentioned results, it was confirmed that deaminase derived from transformant (SAD-1) was similar to AMP deaminase derived from Streptomyces murinus and it was AMP deaminase. Furthermore, it was determined that the enzyme can be preferably used with respect to the reaction using 5′-dAMP, ADP and ATP as a substrate.

[4] = Enzyme kinetics (Km, Vmax); format: biochemical
[5] = pH stability of purified enzyme; format: physicochemical; conditions: pH from about 6.5 to about 8.0, 30° C. for 30 minutes; treatment at pH 7.0 = reference
Description: Next, pH stability of the enzyme was examined by the following procedure. An enzyme solution (0.15 ml) containing 2.8 μg protein (total amount) was adjusted to pH 3 to 8 by using McIlvaine buffer solution, and to pH 8 to 10 by using Atkins-pantin buffer solution. The solution was then allowed to stand at 30° C. for 30 minutes. Thereafter, the residual activity (percent with respect to the enzyme activity in the case where the treatment was carried out in pH 7.0) was measured. It is shown that in the range of pH from about 6.0 to about 8.5, relatively high activity is maintained, and in the range of pH from about 6.5 to about 8.0, about 80% or more of activity is maintained.

B1: AMP deaminase derived from Streptomyces murinus: thermostable AMP deaminase enzyme produced by Streptomyces murinus IFO14802; amino acid sequence SEQ ID NO: 1 (protein, listed as Streptomyces murinus)
chain: APPPRQATAAEARTDAYLRSVKDRPAALRAFFRQLPKGGDLHNHLSGAVNTDYLIELAAEDGLCIDATMTAVPSPCGPGTRPAADARTDRAFHDAIVRAWSMQDFPPDENGHDHFFDTFGKFGEVTWRHRGKLLAQVADTVVANNQSYLETMVTPASDGAKQLADQVGWDADLTALHRKLAAGGKLDKLVADARKEADDGDAEFRATEHCGTAKARPACGLTVRWISQASRGSSPVRVFTQLDLGMRLAEADSRFVAVNLVQPEDWDSSLENYSLQMRMVGYLRTVYPKAHVTLHAGELWPGLVKPEALKFHIAEAVDIAHTQRVGHGVDLVHEDNWQRTARTMAARQIAVEVPFSSNAQILGVKGAEHPFTTYRRYGVPVVLATDDPGVSRIDISHEYQYAAATYGLGYPELKDLARASLQYAFLPGASLWQGNPTAQGYHPVAACRAERPGQPVHSAACRRLLDGSARARLEWRQEAAFAAFERAHARG
thermostability (residual AMP deaminase activity) [1]: extremely excellent | IMP production [2]: IMP was produced | temperature stability (stable at) ([3]; acetate buffer solution (pH 5.6)): ≤ 65 °C | residual activity ([3]; treated at 70° C. for 30 minutes, pH 5.6 acetate buffer, untreated = 100%): about 55% | action on substrate 2′AMP (Substrate specificity): did not act on | action on substrate 3′5′-cyclic AMP (cAMP) (Substrate specificity): also acted on | action on substrate 3′AMP (Substrate specificity): also acted on | action on substrate 5′ AMP (Substrate specificity): most favorably | action on substrate 5′dAMP (Substrate specificity): favorably | action on substrate ADP (Substrate specificity): favorably | action on substrate ATP (Substrate specificity): favorably | action on substrate adenine (Substrate specificity): did not act on | Km [4]: 950 µM | Vmax [4]: 3.5e+07 µmol/min/mg | residual activity [5]: ≥ 80%
